Test results published in patent US20230257452A1 (GTINVENT, published 2023).

Legend:
dGAE (tau 297-391) [1] = target: T1, dGAE (tau 297-391) (human, UniProt P10636 614-708); test: ELISA, antigen coated, scAb titrated
T1 construct: also called dGAE95
Description: The plates were blocked with 2% MPBS and scAb samples added at desired starting concentrations and double diluted across the plate. Binding was detected using anti-Human C Kappa HRP conjugated secondary antibody and the resulting immunoreaction was developed and absorbance values measured as described above.

dGAE (tau 297-391) [2] = target: T1, dGAE (tau 297-391); test: tau-tau immunoassay: scAb preincubated with 100 nM dGAE; blocked ligand: plate-bound dGA (1000 nM); bound dGAE detected with E2E8
Description: The adapted method is as follows: dGA (1000 nM) was adsorbed to a Nunc 96-well MaxiSorp plate and incubated for 1 h at 37° C. Plates were subsequently washed 3 times with PBST which was performed after each 1 h incubation. The plates were blocked with 2% (w/v) dried milk powder in PBS for 1 h at 37° C. […] The secondary antibody used was HRP-conjugated Anti-mouse IgG (1:1000 dilution, Sigma) and incubated at RT for 1 h. The plate was subsequently developed, and readings taken at absorbance 450 nm.

[3] = target: T2, full length human tau protein (2N4R, isoform Tau-F, 441 amino acids) (human, UniProt P10636 1-758); test: sandwich ELISA, S1D12 mAb capture, hT40 titrated, detection scAb, chemiluminescent
T2 construct: also called hT40; htau40
T2 sequence (P10636 other isoform, or with tags, fused parts or gaps limits assumed): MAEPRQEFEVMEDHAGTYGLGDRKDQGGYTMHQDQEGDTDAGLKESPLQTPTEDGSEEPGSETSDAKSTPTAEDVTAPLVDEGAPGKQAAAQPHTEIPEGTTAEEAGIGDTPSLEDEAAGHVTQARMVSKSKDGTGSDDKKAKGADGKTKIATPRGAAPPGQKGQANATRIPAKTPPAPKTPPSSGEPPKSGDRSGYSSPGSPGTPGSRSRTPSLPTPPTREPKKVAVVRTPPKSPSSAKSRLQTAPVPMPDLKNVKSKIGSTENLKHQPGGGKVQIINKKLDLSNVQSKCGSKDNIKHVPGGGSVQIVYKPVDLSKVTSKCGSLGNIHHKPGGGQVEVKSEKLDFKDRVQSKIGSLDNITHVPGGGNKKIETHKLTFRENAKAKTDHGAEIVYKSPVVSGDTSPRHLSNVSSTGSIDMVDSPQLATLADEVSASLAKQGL
Description: (§1) Full length tau (hT40), at 1 μg/ml starting concentration was added to designated wells and double diluted across rest of the plates and left to incubate at R/T for 1 h. A series of detection scAbs with varying epitope recognition properties were added at 10 μg/ml to designated wells (FIG. 22). For colourimetric detection HRP conjugated anti-HuCk secondary antibody was used and the resulting immunoreaction was developed and absorbance at 450 nm measured as described previously. Cut-off point for a positive binding event was an absorbance value of 0.3 following background subtraction. In order to enhance the assay sensitivity, a chemiluminescent detection method was adopted where 50 μL SuperSignal ELISA Femto Substrate (Thermo Scientific) was added to each well following incubation with anti-HuCK HRP antibody and subsequent washing. The luminescence was read using Clariostar Plus microplate reader. A further modification to this protocol was done where various detection scAbs were directly conjugated with HRP and detected using chemiluminescent protocol as before.

[4] = target: T2, full length human tau protein (2N4R, …); test: sandwich ELISA, S1D12 mAb capture, hT40 titrated, detection scAb at 10 ug/ml, colourimetric
Description: as §1

[5] = target: T2, full length human tau protein (2N4R, …); test: ELISA, hT40 coated, scAb titrated

T1 sequence (P10636 614-708 limits assumed): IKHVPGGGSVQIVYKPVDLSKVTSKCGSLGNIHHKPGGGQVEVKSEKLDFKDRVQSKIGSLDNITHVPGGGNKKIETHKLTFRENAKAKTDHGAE

Binder	B50 (dGAE (tau 297-391) [2])	LoD (ng/ml) chemiluminescence detection [3]	LoD (ng/ml) colourimetric detection [4]	also measured
E2B7 scAb (scFv, not shown: human C kappa domain and hexa-His tag of the scAb format) scFv: QVQLQESGPSLVKPSQTLSLTCTVSGFSLTSWGVAWVRQAPGKALEWLGTMRSGGGTEYNPALKSRLSITRDTSKSQVSLSLSSVTTEDMAMYYCARGYLSGIHYAWGRGLLVSVSSEGKSSGASGESKVDDQAVLTQLSSVSGSLGQRVSITCSGSSSNVGDGDYVGWFQQLPGSAPKLLIYSARNRASGVPDRFSGSRSGNTATLTITSLQAEDEADYYCASIDTSRSHIFGSGTRLTVLG				binding result (dGAE (tau 297-391) [1]): binds
S1D9 scAb (scFv, not shown: human C kappa domain and hexa-His tag of the scAb format) scFv: QVQLQESGPSLVKPSQTLSLTCTVSGFSLTSNSVGWVRQAPGKAPEWVAGIDSDGEEGYNPALNSRLSITRDTSKNQVSLSLSRVTSEDTAVYYCGRTYRTDGYAYGYVQAIDYWGPGLLVTVSSEGKSSGASGESKVDDRVMLTQPPSVSGSPGQTVSITCSGSFIGISSVGWFQQLPGSGLRTVIFASDGRPSGVPDRFSNSKSGNTATLTISSLQAEDEADYFCGSSDRTQYTGVFGSGTRLTVLS	107 nM			
CB7 scAb (scFv, not shown: human C kappa domain and hexa-His tag of the scAb format) scFv: QVQLQESGPSLVKPSQTLSLTCTVSGFSLTNYRVGWVRQAPGKALEWVSNIRSGGTTWYNPALKSRLSITADTSKSQVSLSLSSVTTEDTAVYYCARDSSGDLYAYDYWGPGLLVTVSSEGKSSGASGESKVDDQAVLTQPSSVSRSLGQSVSMTCSGSSSNVGYGNYMAWFQQVPGSAPKLLIYGATSRASGVPDRFSGSRSGNTATLTISSLQAEDEADYYCASYDSTSGGVFGSGTRLTVLG		3.33 ng/mL	15 ng/mL	
412E10 scAb (scFv, not shown: human C kappa domain and hexa-His tag of the scAb format) scFv: QVQLQESGPSLVKPSQTLSLTCTVSGFSVISDSVAWVRQAPGKVPEWLGASGSSGNKYYNPALKSRLSITRDTSKSQVSLSLSSVTTEDTAVYYCARGIIAGVDVWGRGLLVTVSSEGKSSGASGESKVDDQAVLTQPSSVSGSLGQRVSITCSGSSSNVGYGNYVGWYQQVPGSAPKLLIYGTAIRASGVPDRFSGSRSGDTATLTITSLQAEDEADYYCASYQSNYAFFGSGTRLTVLG		0.37 ng/mL	20 ng/mL	
CE3 scAb (scFv, not shown: human C kappa domain and hexa-His tag of the scAb format) scFv: QVRLQESGPSLVKPSQTLSVTCTVSGFSLISNAVGWVRQAPGKVPESLAGCSSDGKCYYNSALKSRLDITRDTSKNQISLSLSSVTTDDAAVYYCTRGYYPVYGYDYLGTIDYWGPGLLVTVSSEGKSSGASGESKVDDQAVLTQPSSVSGSLGQRVSITCSGSSSNVGRNDVAWFQQLPGSGLRTIIYGTTSRPSGIPDRFSGSKSGVTATLTIDSLQAEDEADYFCASGDSSAINDIFGSGTRLTVLG	209 nM			
CC7 scAb (scFv, not shown: human C kappa domain and hexa-His tag of the scAb format) scFv: QVQLQESGPSLVKPSQTLSLTCTVSGFSLTSNAVIWVRQAPGKAPEWVALIDVDGDAAYDPALKSRLSITRDTSKSQVSLSLRSVTTEDTAVYYCARDYGSWGYVSDIDYWGPGLLVTVSSEGKSSGASGESKVDDRVVRTQPSSVSGSLGQRVSITCSGSYITGSSVGWFQQVPGSGLKTVIYDNNDRPSGVPDRFSGSKSGDTATLTISSLQAEDEADYYCASYDTSNIGLFGSGTRLTVLG		3.33 ng/mL	6 ng/mL	
S2C6 scAb (scFv, not shown: human C kappa domain and hexa-His tag of the scAb format) scFv: QVQLQESGPSLVKPSQTLSLTCTVSGFSLISNSVGWVRQAPGKAPEWVAGIDTDGEEGYNPALKSQYAASDPDTSKSQVSLSLSSVTSEDTAVYYCGRTYRTDGFAYGYVQAIDYWGPGLLLTISSEGKSSGASGESKVDDQAVLTQPSSVSGSLGQRVSITCSGSFIGISSVGWFQQLPGSGLRTIIVASDGRPSGVPDRFSMSKSGNTATLTISSLQAEDEADYFCGSSDRTQYTGVFGSGTRLTVLG	51 nM			
CE2 scAb (scFv, also called CE2/E1B8; not shown: human C kappa domain and hexa-His tag of the scAb format) scFv: QVQLQESGPSLVKPSQTLSLTCTVSGFSLTNYPVGWVRQAPGKALEWIGNIENDGSANYASALKSRLSITRDTSKNQVSLSLSSATTEDTAVYYCGREFGGSDGYTYFVDIDYWGPGLLVTVSSEGKSSGASGESKVDDQAVLTQPSSVSKSLGQSVSITCSGSSSNVGYGNYVSWFQQVPGSAPKILIYGATSRASGVPDRFSGSRSGNTATLTITSLQAEDEADYYCASYDGSSSGVFGSGTRLTVLG	211 nM			
CA4 scAb (scFv, not shown: human C kappa domain and hexa-His tag of the scAb format) scFv: QVQLQESGPSLVKPSQTLSLTCTVSGFSLTSYSVYWVRQAPGQALEWISIMYASGRVDYNPALKSRLSITRDTSKSQFSLSLSSVTTEDTAVYYCTRGIENWGPGLLVTVSSEGKSSGASGESKVDDDIQVTQSPSSLSASLTERVSITCRTSQSVNNYLSWYQQKPGQAPKLLIYYATRLYTDVPSRFSGSGSGTDYTLTITSLEADDTATYYCLQYDSTPLAFGGGTNVEIK	221 nM	0.37 ng/mL	6 ng/mL	
CA12 scAb (scFv, not shown: human C kappa domain and hexa-His tag of the scAb format) scFv: QVQLQGSGPSLVKPSQTLSLTCTVSGFSFDSYYVGWVRQAPGKALEWLGNIYSTGRAFYNPALKSRLSITRDTSKSQVSLSVSSVTIEDTALYYCVRGSYYHGGGNGMVDFFDYWSPGLLVTVSSEGKSSGASGESKVDDQVVRTQPSSVSGSLGQRVSITCSGSSSNVGYGNYVGWFQQVPGSAPKLLIYAATSRASGVPDRFSGSRSGNTATLTIDSLQAEDEADYYCSSYQRGNTGVFGSGTRLTVLG	59 nM			EC50 (read off the curve) [5]: ~0.02 µg/mL
S1G10 scAb (scFv, not shown: human C kappa domain and hexa-His tag of the scAb format) scFv: QVQLQESGPSLVKPSQTLSLTCTVSGFSLTSNSVGWVRQAPGKAPEWVAGIDTDGEEGYNPALNSRLSITRDTSKSQVSLSLSSVTSEDTAVYYCGRSYRADGLAYGYVQAIDYWGPGLLVTVSSEGKSSGASGESKVDDQAVLTQPSSMSGSLGQRVSITCSGSFIGISSVGWFQQLPGSGLRTIIVASDGRPSGVPDRFSMSKSGNTATLTISSLQAEDEADYFCGSSDRTQYTGVFGSGTRLTVLG	207 nM	0.12 ng/mL	2 ng/mL	
S1E12 scAb (scFv, not shown: human C kappa domain and hexa-His tag of the scAb format) scFv: QVQLQESGPSLVKPSQTLSLTCTVSGFSLGSNSVGWVRQAPGKAPEWVAGIDTDGEEGYNPALNSRLSITRDTSKSQVSLSLSSVTSEDTAVYYCGRSYRADGLAYGYVQAIDYWGPGLLVTVSSEGKSSGASGESKVDDRVVRTQPSSVSGSLGQRVSITCSGSFIGISSVGWFQQLPGSGLRTIIVASDGRPSGVPDRFSMSKSGNTATLTISSLQAEDEADYFCGSSDRTQYTGVFGSGTRLTVLG	92 nM			
S1B1 scAb (scFv, not shown: human C kappa domain and hexa-His tag of the scAb format) scFv: QVQLQESGPSLVKPSQTLSLTCTVSGFSLSSNSVGWVRQAPGKAPEWVAGIDTDGEEGYNPALNSRLSITRDTSKSQVSLSLSSVTSEDTAVYYCVRSYRTDGLAYGYVQAIDYWGPGLLVTVSSEGKSSGASGESKVDDQAVLTQPSSVSGSLGQRVSITCSGSFIGISSVGWFQQLPGSGLRTVIVASDGRPSGVPDRFSNSKSGNTATLTISSLQAEDEADYFCGSSDRTQYTGVFGSGTRLTVLG	101 nM			
S1F4 scAb (scFv, not shown: human C kappa domain and hexa-His tag of the scAb format) scFv: QVQLQESGPSLVKPSQTLSLTCTVSGFSLSSNSVGWVRQAPGKAPEWVAGIDTDGEEGYNPALNSRLSITRDTSKSQVSLSLSSVTSEDTAVYYCVRSYRADGLAYGYVQAIDYWGPGLLLTISSEGKSSGASGESKVDDQAVVTQPSSVSGSLGQRVSITCSGSFIGISSVGWFQQLPGSGLRTVIVASDGRPSGVPDRFSNSKSGNTATLTISSLQAEDEADYFCGSSDRTQYTGVFGSGTRLTVLG				EC50 (read off the curve) [5]: ~0.05 µg/mL
CB2 scAb (scFv, not shown: human C kappa domain and hexa-His tag of the scAb format) scFv: QVQLQESGPSLVKPSQTLSLTCTVSGFSLSTNSVGWVRQAPGKAPEWVAGIDTDGEEGFNPVLKSRLSITRDTSKSQVSLSLSNVTSEDTAVYYCGRSYRTDGLAYGYVQAIDYWGPGLLVTISSEGKSSGASGESKVDDQSVLTQPSSVSGSPGQTVSITCSGSYIGSSGVGWFQQLPGSGLRTIIVASDGRPSGVPDRFSMSKSGNTATLTISSLQAEDEADYFCGSSDRTQYTGLFGSGTRLTVLG	93 nM			
